Measured values taken from patent publication EP3464323B1.
No end group written: not given here.

Target: CY5-CAS9:sgRNA complex (1:1 molar ratio) (S. pyogenes), Q99ZW2
Assay: fluorescence titration; 5 nM CY5-CAS9:sgRNA (1:1) titrated with peptide, quadratic fit
Conditions: remark: other sources report otherwise

Chain of CY5-CAS9:sgRNA complex (1:1 molar ratio) (S. pyogenes), Q99ZW2 (Q99ZW2 whole entry, one chain of several): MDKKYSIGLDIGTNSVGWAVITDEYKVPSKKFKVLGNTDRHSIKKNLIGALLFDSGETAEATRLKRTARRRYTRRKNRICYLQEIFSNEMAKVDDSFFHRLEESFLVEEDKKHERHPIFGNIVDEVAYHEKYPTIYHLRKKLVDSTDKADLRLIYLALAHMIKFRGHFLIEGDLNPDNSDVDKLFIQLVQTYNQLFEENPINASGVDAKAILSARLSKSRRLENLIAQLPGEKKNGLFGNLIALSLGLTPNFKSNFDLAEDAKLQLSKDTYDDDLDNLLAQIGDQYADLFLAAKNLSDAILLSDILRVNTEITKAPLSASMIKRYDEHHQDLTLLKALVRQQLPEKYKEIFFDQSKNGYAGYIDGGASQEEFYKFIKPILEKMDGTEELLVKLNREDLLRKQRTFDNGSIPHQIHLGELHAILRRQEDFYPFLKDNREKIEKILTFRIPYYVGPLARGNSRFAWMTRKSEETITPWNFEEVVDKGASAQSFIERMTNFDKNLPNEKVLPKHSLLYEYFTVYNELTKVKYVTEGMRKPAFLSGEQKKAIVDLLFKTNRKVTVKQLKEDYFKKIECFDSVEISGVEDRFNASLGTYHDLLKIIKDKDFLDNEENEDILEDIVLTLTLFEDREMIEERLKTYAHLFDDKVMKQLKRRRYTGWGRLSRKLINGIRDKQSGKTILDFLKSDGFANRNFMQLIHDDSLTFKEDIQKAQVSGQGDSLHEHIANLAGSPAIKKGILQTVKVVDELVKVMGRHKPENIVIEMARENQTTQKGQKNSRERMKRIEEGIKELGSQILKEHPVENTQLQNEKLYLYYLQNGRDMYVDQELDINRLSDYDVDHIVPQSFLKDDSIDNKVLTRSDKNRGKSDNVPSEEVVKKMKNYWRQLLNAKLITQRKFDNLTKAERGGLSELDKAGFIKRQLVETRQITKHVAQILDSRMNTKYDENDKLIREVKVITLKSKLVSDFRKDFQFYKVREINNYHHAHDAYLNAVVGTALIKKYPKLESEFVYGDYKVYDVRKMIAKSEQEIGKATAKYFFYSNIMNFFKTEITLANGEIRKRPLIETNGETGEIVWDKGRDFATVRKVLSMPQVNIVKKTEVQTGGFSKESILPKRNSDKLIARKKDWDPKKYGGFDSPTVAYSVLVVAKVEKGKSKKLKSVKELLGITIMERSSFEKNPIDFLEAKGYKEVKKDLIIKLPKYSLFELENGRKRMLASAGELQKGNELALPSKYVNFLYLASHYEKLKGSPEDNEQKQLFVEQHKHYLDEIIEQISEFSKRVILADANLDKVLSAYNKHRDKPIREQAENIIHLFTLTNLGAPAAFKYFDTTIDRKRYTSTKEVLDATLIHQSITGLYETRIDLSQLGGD

GLWRALWRLLRSLWRLLWKV (also: acetate salt) [CADY]
Kd: 21 nM
